Results reported in the supplement of paper PMC7125110.
± gives the standard error. Variants at the floor of the assay were thinned out.

B1: glmS ribozyme (parent)
chain: AUAAAAGCGCCAGAACUACAGAAAUGUAGUUGACGAGGAGGAGGUUUAUCGAAUUUUCGGCGGAUGCCUCCAAA

What was measured:
Conditions in all cases: with glucosamine-6-phosphate
glucosamine-6-phosphate [1] = variants of: B1; test: self-cleavage kobs at 40 uM GlcN6P; higher = faster cleavage; RNA array
Summary of the method: (§1)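 E. coli RNA polymerase transcribed barcoded ribozyme variants in situ on sequenced MiSeq chips, which were tracked via a hybridised Cy3 probe at 37 °C. Tiles were imaged over ~14 h after glucosamine-6-phosphate (40 μM to 10 mM) in HEPES/KCl/Mg(OAc)2 buffer was flowed in. Normalised per-tile medians were fit to one- or two-exponential decays for kobs, and kcat and KM came from weighted Michaelis–Menten fits.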

glucosamine-6-phosphate [2] = variants of: B1; test: self-cleavage kobs at 160 uM GlcN6P; higher = faster cleavage; RNA array
Summary of the method: as §1

glucosamine-6-phosphate [3] = variants of: B1; test: self-cleavage kobs at 640 uM GlcN6P; higher = faster cleavage; RNA array
Summary of the method: as §1

glucosamine-6-phosphate [4] = variants of: B1; test: self-cleavage kobs at 2500 uM GlcN6P; higher = faster cleavage; RNA array
Summary of the method: as §1

glucosamine-6-phosphate [5] = variants of: B1; test: self-cleavage kobs at 10000 uM GlcN6P; higher = faster cleavage; RNA array
Summary of the method: as §1

| Variant | self-cleavage kobs at 40 uM GlcN6P (glucosamine-6-phosphate [1]) [s⁻¹] | self-cleavage kobs at 160 uM GlcN6P (glucosamine-6-phosphate [2]) [s⁻¹] | self-cleavage kobs at 640 uM GlcN6P (glucosamine-6-phosphate [3]) [s⁻¹] | self-cleavage kobs at 2500 uM GlcN6P (glucosamine-6-phosphate [4]) [s⁻¹] | self-cleavage kobs at 10000 uM GlcN6P (glucosamine-6-phosphate [5]) [s⁻¹] |
| --- | --- | --- | --- | --- | --- |
| U45A U54G | 0.00129 ± 0.00023 | 0.00383 ± 0.00079 | 0.0132 ± 0.0028 | 0.0113 ± 0.0021 | 0.0501 ± 0.011 |
| U47C G63C | < 1e-05 |  | < 1e-05 | < 1e-05 | < 1e-05 |
| U46G U56A | 5.1e-05 ± 7.3e-06 |  | 0.000601 ± 0.00017 |  | 0.00224 ± 0.00042 |
| U46G G63C | < 1e-05 | < 1e-05 | < 1e-05 | < 1e-05 | < 1e-05 |
| U46A G51C | < 1e-05 |  | < 1e-05 | < 1e-05 | < 1e-05 |
| A48U A53C | < 1e-05 | < 1e-05 |  |  |  |
| G44A U65G | < 1e-05 | < 1e-05 |  |  |  |
| A42G U49C | < 1e-05 | < 1e-05 | < 1e-05 | < 1e-05 | < 1e-05 |
| A42U G44A U65G | < 1e-05 | < 1e-05 | < 1e-05 | < 1e-05 | < 1e-05 |
| G43A G63U | < 1e-05 | < 1e-05 | < 1e-05 |  |  |
| U49A C58A | < 1e-05 | < 1e-05 | < 1e-05 |  |  |
| C50A G59C | < 1e-05 |  | < 1e-05 | < 1e-05 | < 1e-05 |
| U47A G51U | < 1e-05 | < 1e-05 |  |  | < 1e-05 |
| U47A G51C | < 1e-05 | < 1e-05 |  | < 1e-05 | < 1e-05 |
| U46G A48C | < 1e-05 | < 1e-05 | < 1e-05 |  |  |
| G44A A52G | < 1e-05 | < 1e-05 |  |  |  |
| U46A C58U | < 1e-05 | < 1e-05 | < 1e-05 |  |  |
| G43U C68A | 0.00235 ± 0.00036 | 0.00333 ± 0.00054 | 0.0194 ± 0.0032 | 0.0175 ± 0.005 | 0.0761 ± 0.024 |
| C50A U57G C68U | < 1e-05 |  |  |  | < 1e-05 |
| U47G U56G C61U C67G C70U | 0.000123 ± 6.1e-05 |  | 0.000281 ± 8.9e-05 |  | 4.99e-05 ± 1.9e-05 |

| Variant | self-cleavage kobs at 40 uM GlcN6P (glucosamine-6-phosphate [1]) [s⁻¹] | self-cleavage kobs at 160 uM GlcN6P (glucosamine-6-phosphate [2]) [s⁻¹] | self-cleavage kobs at 640 uM GlcN6P (glucosamine-6-phosphate [3]) [s⁻¹] | self-cleavage kobs at 2500 uM GlcN6P (glucosamine-6-phosphate [4]) [s⁻¹] | self-cleavage kobs at 10000 uM GlcN6P (glucosamine-6-phosphate [5]) [s⁻¹] |
| --- | --- | --- | --- | --- | --- |
| G43A C50G | < 1e-05 | < 1e-05 | < 1e-05 |  | < 1e-05 |
| G43U G44A A48G C58A U69A C71G | < 1e-05 | < 1e-05 |  | < 1e-05 | < 1e-05 |
| A48C G51U | < 1e-05 |  | < 1e-05 |  | < 1e-05 |
| C50A A53C | < 1e-05 |  |  |  |  |
| U47A U49C | < 1e-05 |  | < 1e-05 | < 1e-05 |  |
| G44U A53C C58U C71U | < 1e-05 | < 1e-05 | < 1e-05 | < 1e-05 | < 1e-05 |
| U47A A53U | 0.000547 ± 6.1e-05 | 0.00098 ± 0.0002 | 0.00349 ± 0.00062 | 0.00324 ± 0.00072 | 0.0124 ± 0.0022 |
| A48G C50G C61A | 9.98e-05 ± 2.4e-05 |  |  |  | 6.27e-05 ± 1.9e-05 |
| A48C C50A | < 1e-05 | < 1e-05 | < 1e-05 |  | < 1e-05 |
| G43A G51A | < 1e-05 | < 1e-05 |  | < 1e-05 | < 1e-05 |
| A42U C68A | < 1e-05 | < 1e-05 | < 1e-05 |  | < 1e-05 |
| U47C A48G C50G C70G | 3.16e-05 ± 1.6e-05 |  |  |  |  |
| G44U U45C | < 1e-05 |  |  |  |  |
| G44U C50G | < 1e-05 |  |  |  | < 1e-05 |
| A48U G51U U65G C71U | < 1e-05 |  |  | < 1e-05 |  |
| G44A G51A U65G C67G | < 1e-05 | < 1e-05 | < 1e-05 | < 1e-05 | < 1e-05 |
| U47A A52C | < 1e-05 |  |  |  |  |
| A48U C58U | < 1e-05 | < 1e-05 | < 1e-05 | < 1e-05 | < 1e-05 |
| G44C C70G | < 1e-05 | < 1e-05 | < 1e-05 | < 1e-05 | < 1e-05 |
| U45C C67A C70G | < 1e-05 |  |  | < 1e-05 |  |
